Eight molecules from patent WO2016073157A1 (dated 2016) can be followed below.

For orientation: Kd means a measure of binding affinity in units of concentration. A higher Kd goes with a looser complex. One may read the IC50 as the concentration that gives 50% inhibition.

Positions count from the first letter of the chain named. Numbers in names are those of the source.

In test [1] the target is T1, hVEGF109 (human, UniProt P15692-4 34-135, limits assumed).
T1 construct: Numbers count on the mature 165-amino acid VEGF, not on the precursor; also called human VEGF (hVEGF 109)
T1 sequence (looked up): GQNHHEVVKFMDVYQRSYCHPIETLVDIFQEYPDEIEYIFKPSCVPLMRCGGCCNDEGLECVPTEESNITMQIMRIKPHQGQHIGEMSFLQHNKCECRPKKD
Put plainly: BIACORE T200 SPR, hVEGF109 coupled to CM5 chip, Fab as analyte, VEGF inferred. (Surface plasmon resonance follows binding to a sensor surface in real time, without labels.)

Test [2] concerns the target T1, hVEGF109. Put plainly: phage competition ELISA (phage IC50), hVEGF109 in solution and on the plate, VEGF inferred. On the technique in general: An ELISA detects its analyte on a solid surface through an enzyme-linked reagent.
In test [3] the target is T2, human Fc fusion of Ang2 protein (human, UniProt O15123 275-496, limits assumed).
T2 construct: Captured by anti-human Fc on the CM5 chip; also called hAng2 (SPR flow cell); not shown: human Fc
T2 sequence (looked up): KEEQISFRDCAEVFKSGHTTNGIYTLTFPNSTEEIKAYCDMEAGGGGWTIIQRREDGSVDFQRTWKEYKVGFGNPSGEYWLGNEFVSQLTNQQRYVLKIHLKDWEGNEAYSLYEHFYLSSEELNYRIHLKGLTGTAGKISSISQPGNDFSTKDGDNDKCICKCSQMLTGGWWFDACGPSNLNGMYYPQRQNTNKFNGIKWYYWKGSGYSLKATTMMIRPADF
Put plainly: BIACORE T200 SPR, human Fc fusion of Ang2 captured by anti-human Fc, Fab as analyte, Ang2 inferred.

In test [4] the target is T1, hVEGF109. Nature of the test: BIACORE SPR at 25 C; hVEGF109 immobilized on CM5 chip, variant clone as analyte (monovalent affinity).
Test [5] has as its target T1, hVEGF109. Put plainly: BIACORE SPR at 25 C; hVEGF109 immobilized on CM5 chip, Fab as analyte (monovalent affinity).
Test [6] has as its target T3, His-tagged human Ang2 (hAng2his8) (human, UniProt O15123 19-496, limits assumed).
T3 construct: neither is tied to this construct; not shown: His tag (his8)
T3 sequence (looked up): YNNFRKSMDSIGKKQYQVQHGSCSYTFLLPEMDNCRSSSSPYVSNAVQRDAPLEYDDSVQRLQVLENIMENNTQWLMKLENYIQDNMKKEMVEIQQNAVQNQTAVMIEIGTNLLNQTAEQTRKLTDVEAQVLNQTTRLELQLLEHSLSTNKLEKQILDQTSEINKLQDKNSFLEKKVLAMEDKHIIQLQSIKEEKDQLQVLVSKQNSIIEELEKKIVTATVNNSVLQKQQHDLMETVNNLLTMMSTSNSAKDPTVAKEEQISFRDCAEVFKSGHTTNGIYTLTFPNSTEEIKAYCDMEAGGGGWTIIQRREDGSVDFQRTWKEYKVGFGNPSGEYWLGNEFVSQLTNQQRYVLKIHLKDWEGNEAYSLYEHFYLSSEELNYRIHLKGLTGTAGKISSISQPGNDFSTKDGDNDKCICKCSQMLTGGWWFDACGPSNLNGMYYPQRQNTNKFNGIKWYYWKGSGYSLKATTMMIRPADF
Put plainly: BIACORE SPR at 25 C; hAng2his8 immobilized on CM5 chip, Fab as analyte (monovalent affinity).

B1: 5A12 4.2 LC.Q89H/LC.L93K ("D") (Fab, V domains shown)
VH: EVQLVESGGGLVQPGGSLRLSCAASGFTISDYWIHWVRQAPGKGLEWVAGITPAGGYTYYADSVKGRFTISADTSKNTAYLQMNSLRAEDTAVYYCARFVFFLPYAMDYWGQGTLVTVSS
VL: DIQMTQSPSSLSASVGDRVTITCRASQFLSSFGVAWYQQKPGKAPKLLIYGASSLYSGVPSRFSGSGSGTDFTLTISSLQPEDFATYYCHQGLKSPLTFGQGTKVEIK
notes: 5A12 4.2 variant; Fab on phage in the IC50 assay, purified Fab in SPR
Turning to B1, the results for the Kd in test [1] and in test [3] were 0.675 nM and 0.259 nM, respectively. Moreover, in test [2], the IC50 was 3.71 nM.

B2: 5A12 4.2 LC.Q89H (Fab, V domains shown)
VH: B1 VH
VL: B1 VL with K94L
notes: 5A12 4.2 variant; Fab on phage in the IC50 assay; also called LC-89H
With B2, the IC50 in test [2] was 0.138 nM.

B3: 5A12 4.2 (Fab, V domains shown)
VH: B1 VH
VL: B1 VL with H90Q, K94L
notes: also called Fab5A12 4.2
Regarding B3, the “apparent Kd (pooled screen)” value in test [4] stood at 5 nM.

B4: 5A12 4.2 LC.Q89W (Fab, V domains shown)
VH: B1 VH
VL: B1 VL with H90W, K94L
notes: 5A12 4.2 variant; Fab on phage in the IC50 assay; also called LC-89W
Molecule B4 registered an IC50 in test [2] of 2.55 nM.

B5: 5A12 4.2 LC.A34N (Fab, V domains shown)
VH: B1 VH
VL: B1 VL with A35N, H90Q, K94L
notes: 5A12 4.2 variant; Fab on phage in the IC50 assay; also called LC-34N
Molecule B5 displayed an IC50 in test [2] of 221 nM.

B6: 5A12 4.2 LC.L92S (Fab, V domains shown)
VH: B1 VH
VL: B1 VL with H90Q, L93S, K94L
notes: 5A12 4.2 variant; Fab on phage in the IC50 assay; also called LC-92S
For B6, the IC50 in test [2] is 27.7 nM.

B7: 5A12 4.2 LC.L93K (Fab, V domains shown)
VH: B1 VH
VL: B1 VL with H90Q
notes: 5A12 4.2 variant; Fab on phage in the IC50 assay; also called LC-93K
Molecule B7 displayed an IC50 in test [2] of 0.48 nM.

B8: 5A12 4.2.16.2 (Fab, V domains shown)
VH: B1 VH with H35Y, T58E, A106V
VL: B1 VL with A35G, H90W, K94L
notes: purified Fab as analyte in SPR; also called DAF16.2
Take B8: the Kd was < 0.003 nM in test [5] and 1.51 nM in test [6].
